This is an account of results in patent publication US20230181719A1, “NGR CONJUGATES AND USES THEREOF” (OSPEDALE SAN RAFFAELE S.R.L., priority 2020, published 2023).

By Ki is commonly meant a measure of affinity in units of concentration, obtained from inhibition or displacement.

Starred links: 1 amine or outer side, 2 acyl side, 3 side chain; linkers in the order of their positions; H or OH if unused. Positions of bridges follow the written chain, without caps; N, C: chain ends. Non-standard residues stand in square brackets, D forms with d. Residues, ends and D or L forms follow the SMILES beside them. No end group written: not given here. βAsp = O=C(O)[C@H](CC(=O)[*:2])N[*:1] Where only a bound is given, the exact number is not on record here.

Data set [1] can be described thus: Peptide deamidation stability upon incubation at 37° C., by mass spectrometry. In kind it is physicochemical. Particulars: pH 7.4. How it is done: FIG. 11. The peptide SCNGRCGVRY (SEQ ID NO: 3) has a lower propensity to deamidate than CNGRCGVRY (SEQ ID NO:4) in a physiological buffer at […], but not in ammonium bicarbonate buffer at pH 8.5. A and B) MS analysis of SCNGRCGVRY (SEQ ID NO: 3) and CNGRCGVRY (SEQ ID NO:4) after incubation at 37° C. for the indicated time in 50 mM sodium phosphate buffer, pH 7.4 (PBS) or 0.1 M ammonium bicarbonate buffer, pH 8.5 (Ambic). The values +0, + 1, -17 reported in the plot correspond to the difference between the observed and the expected molecular mass of peptides expressed in daltons. MS analysis was performed using the LTQ-Orbitrap mass spectrometer (Thermo Scientific).
To assess whether the addition of the serine residue to CNGRCG (SEQ ID NO:1) might affect its deamidation propensity inventors synthetized the SCNGRCGVRY (SEQ ID NO: 3) and CNGRCGVRY (SEQ ID NO:4) peptides and studied their stability upon incubation at 37° C. in PBS, pH 7.4, by mass spectrometry.
A similar experiment was then performed with peptides in 0.1 M ammonium bicarbonate, pH 8.5, a condition known to force Asn deamidation (Curnis et al. 2006). […] Furthermore, the succinimide-derivative of S-NGR-TNF, when formed, is more prone to hydrolysis.

The target of a further data set is αvβ3 (Homo sapiens, UniProt P05106+P06756). The experiment in a line: Competitive binding of acetyl-CisoDGRCG/streptavidin-peroxidase to integrin-coated microtiterplates. The conditions noted are these: αvβ3, αvβ5, αvβ6, αvβ8 and α5β1 (all integrins). An excerpt: To assess whether the isoDGR derivative of S-NGR-TNF and NGR-TNF targeting domains can recognize integrins with similar affinities inventors then analysed the binding of SCisoDGRCGVRY (SEQ ID NO: 17), CisoDGRCGVRY and acetyl-CisoDGRCGVRY to αvβ3, αvβ5, αvβ6 αvβ8 and α5β1 integrins using a competitive binding assay previously described (Curnis et al. 2010). […] As expected […] (SEQ ID NO: 3) and […] […] Considering that human NGR-TNF contains acetylated and non-acetylated forms and that both CNGRC (SEQ ID NO:5) and acetyl-CNGRC can undergo deamidation (Curnis et al. 2010), inventors can conclude that the isoDGR derivative of S-NGR-TNF, if formed, behave in a manner similar to those of the isoDGR derivatives of NGR-TNF in terms of integrin recognition.

For a further data set, the system named is L-M cells. The experiment in a line: LM-cells cytolytic assay (MTT). In kind it is cell-based. Particulars: actinomycin D, 20 h, murine proteins. The source says: FIG. 8. Biochemical and biological characterization of murine S-NGR-TNF and NGR-TNF. A) SDS-PAGE under reducing (βMe +) and non-reducing conditions (βMe -) of murine S-NGR-TNF, NGR-TNF and TNF. Arrows: bands corresponding to monomeric subunits (mon) and reducible dimers (dim). B) Representative mass spectra of murine NGR-TNF, TNF and S-NGR-TNF as determined by a Q Exactive HF mass spectrometer. Expected average masses are shown. C) Cytotoxic activity of TNF, NGR-TNF and S-NGR-TNF against L-M cells. L-M cells were incubated in DMEM medium supplemented with 2 mM glutamine, 100 U/ml penicillin, 100 µg/ml streptomycin, 0.25 µg/ml amphotericin-B, 10% fetal bovine serum, 2 µg/ml actinomycin D and TNF, NGR-TNF or S-NGR-TNF at the indicated doses (20 h at 37° C., 5% CO2). Cell viability was quantified by standard 3-(4,5-dimethylthiazol-2-yl)-2,5-diphenyltetrazolium bromide (MTT) assay. D) Binding of TNF, NGR-TNF and S-NGR-TNF to sTNF-R1 (Etanercept). Microtiterplates were precoated with or without the indicated amount of sTNF-R1 (for 16 h), washed with PBS, blocked with PBS containing 3% milk, 1% BSA (binding buffer, 1 h) and incubated with the indicated amounts of TNF, NGR-TNF or S-NGR-TNF diluted in binding buffer (for 1.5 h). The binding of each protein to sTNF-R1 was then detected using a polyclonal anti-murine TNF (IP301, 5 µg/ml in binding buffer, 1 h) followed by a polyclonal goat anti-rabbit antibody conjugated with horseradish peroxidase (1:1000 in binding buffer, 1 h) and o-phenylendiammine as chromogenic substrate.
To assess whether the addition of a serine residue to NGR-TNF affects its capability to recognize the TNF receptors and, consequently, its biological activity, inventors then analyzed the cytotoxic activity of TNF, NGR-TNF and S-NGR-TNF in the LM-cells cytolytic assay.

The target of a further data set is T1, αvβ5 integrin (UniProt P06756 31-992; P18084 24-719, limits assumed).
T1 construct: Coated on microtiter plates
The experiment in a line: competitive binding assay, integrin-coated plates; competitor probe acetyl-CisoDGRCG/streptavidin-peroxidase. An excerpt: (§1) To assess whether the isoDGR derivative of S-NGR-TNF and NGR-TNF targeting domains can recognize integrins with similar affinities inventors then analysed the binding of SCiso[…] (SEQ ID NO: 17), Ciso[…] and acetyl-Ciso[…] to αvβ3, αvβ5, αvβ6 αvβ8 and α5β1 integrins using a competitive binding assay previously described (Curnis et al. 2010). […] Considering that human NGR-TNF contains acetylated and non-acetylated forms and that both CNGRC (SEQ ID NO:5) and acetyl-CNGRC can undergo deamidation (Curnis et al. 2010), inventors can conclude that the isoDGR derivative of S-NGR-TNF, if formed, behave in a manner similar to those of the isoDGR derivatives of NGR-TNF in terms of integrin recognition.
(§2) a) Competitive binding of acetyl-CisoDGRCG/streptavidin-peroxidase to integrins. The binding assay was performed using integrin-coated microtiterplates as previously described (Curnis et al. 2013). b) n, number of independent experiments, each in duplicate.

The next data set has as its target T2, αvβ6 integrin (UniProt P06756 31-992; P18564 22-707, limits assumed).
T2 construct: Coated on microtiter plates
The data set is described as above.
Source text: as §1, §2

For another data set, the target named is T3, αvβ8 integrin (UniProt P06756 31-992; P26012 43-684, limits assumed).
T3 construct: Coated on microtiter plates
Described as above.
Source text: as §1, §2

A further data set addresses T4, α5β1 integrin (UniProt P08648 42-995; P05556 21-728, limits assumed).
T4 construct: Coated on microtiter plates
The description is as above.
Source text: as §1, §2

The target in the next data set is T5, αvβ3 integrin (UniProt P06756 31-992; P05106 27-718, limits assumed).
T5 construct: Coated on microtiter plates
Described as above.
Source text: as §1, §2

Data set [2] concerns the target T6, recombinant human histidine-tagged CD13 (human, UniProt P15144 69-967, limits assumed).
T6 construct: Histidine tag present; also called aminopeptidase N
The experiment in a line: CD13 enzyme kinetics inhibition, 50 mM Tris-HCl buffer, pH 7.4.

Data set [3] has as its target T6, recombinant human histidine-tagged CD13. The data set is described as follows: CD13 enzyme kinetics inhibition, 60 mM potassium phosphate buffer, pH 7.4. The source says:
FIG. 10. The peptide […] (SEQ ID NO: 3) inhibits CD13 enzymatic activity more efficiently than […] (SEQ ID NO:4) and acetylated-[…]. A) Steady state kinetic analysis of CD13 in the presence of various amounts of L-alanine p-nitroanilide substrate and […] (SEQ ID NO: 3), […] (SEQ ID NO:4), or acetylated-[…] (ac-[…]) (SEQ ID NO:42). A representative plot of 3-4 independent experiments, showing the initial velocity (V₀) versus substrate concentration (mean ± SE of four technical replicates), is shown. The assays were performed with recombinant human histidine-tagged CD13 (200-300 ng/ml) in 60 mM potassium phosphate buffer, pH 7.4, at room temperature. The kinetic of p-nitroanilide formation was monitored spectrophotometrically (A405 nm) for 5-10 min. The inhibitory constant (Ki) reported in each plot is the result of the 3-4 independent experiments (mean ± SE). B) Double reciprocal plots of the experiments reported in panel A.
Each experiment was performed with 4 technical replicates

`CC(C)[C@H](NC(=O)CNC(=O)[C@@H]1CSSC[C@H](N)C(=O)N[C@@H](CC(N)=O)C(=O)NCC(=O)N[C@@H](CCCNC(=N)N)C(=O)N1)C(=O)N[C@@H](CCCNC(=N)N)C(=O)N[C@@H](Cc1ccc(O)cc1)C(=O)O` [CNGRCGVRY, CNGRCGVRY (SEQ ID NO:4), reference compound] (H-CNGRCGVRY-OH; disulfide 1-5 (inferred); N-terminus and C-terminus assumed): the “-17 Da form (succinimide intermediate of deamidation)” value in data set [1] (after 2 h at 37° C. in PBS) was “observed”. In addition, in [1] (after 32 h at 37° C. in PBS), the “+1 Da deamidation product (DGR/isoDGR)” value is given as “observed” and the “-17 Da form still present” value was “a large amount of the -17 Da form was still present”.

`CC(C)[C@H](NC(=O)CNC(=O)[C@@H]1CSSC[C@H](NC(=O)[C@@H](N)CO)C(=O)N[C@@H](CC(=O)O)C(=O)NCC(=O)N[C@@H](CCCNC(=N)N)C(=O)N1)C(=O)N[C@@H](CCCNC(=N)N)C(=O)N[C@@H](Cc1ccc(O)cc1)C(=O)O` [SCDGRCGVRY, SCDGRCGVRY (SEQ ID NO:22)] (H-SCDGRCGVRY-OH; disulfide 2-6; N-terminus and C-terminus assumed): the affinity for integrins entry at αvβ3 is given as “no or very low affinity”.

For “TNF: Murine tumor necrosis factor-α (SEQ ID NO: 15) [reference compound]”, the EC50 cytotoxic activity entry in the data set with L-M cells was “very similar”.

With Ac-C[βAsp]GRCGVRY (disulfide 1-5) [acetyl-CisoDGRCGVRY peptide], the Ki with αvβ5 integrin turned out to be 21 nM; with αvβ6 integrin it was 5 nM; with αvβ8 integrin it was 18 nM; with α5β1 integrin, 4 nM; with αvβ3 integrin it was 3 nM.

Take C[βAsp]GRCGVRY (disulfide 1-5) [CisoDGRCGVRY peptide]: the Ki was 391 nM with αvβ5 integrin; 131 nM with αvβ6 integrin; 554 nM with αvβ8 integrin; 75 nM in the data set with α5β1 integrin; 11 nM with αvβ3 integrin.

As to SC[βAsp]GRCGVRY (disulfide 2-6) [SCisoDGRCGVRY peptide], the Ki with αvβ5 integrin was found to be 77 nM; in the data set with αvβ6 integrin, 25 nM; in the data set with αvβ8 integrin, 156 nM; in the data set with α5β1 integrin, 11 nM; with αvβ3 integrin, 17 nM.

B1: CNGRCGVRY peptide (peptide)
peptide: CNGRCGVRY
modifications: disulfide 1-5
notes: Synthetic peptide corresponding to the N-terminal region of human NGR-TNF
Turning to B1, the Ki in [2] was determined as 35600 nM; in [3], 76500 nM.

B2: SCNGRCGVRY peptide (peptide)
peptide: SCNGRCGVRY
modifications: disulfide 2-6
notes: Synthetic peptide corresponding to the N-terminal region of human S-NGR-TNF
B2: the Ki in data set [2] is 6800 nM; in [3] it was 25000 nM; in the data set with αvβ5 integrin it was greater than 10000 nM; in the data set with αvβ6 integrin, greater than 10000 nM; with αvβ8 integrin, greater than 10000 nM; with α5β1 integrin, greater than 10000 nM. Besides, in the data set with αvβ3 integrin, the Ki is greater than 10000 nM.

For the molecule SCDGRCGVRY [SCDGRCGVRY peptide], the Ki with αvβ5 integrin is 779 nM; with αvβ6 integrin it was 5500 nM; with αvβ8 integrin, 21400 nM; with α5β1 integrin, 4790 nM; with αvβ3 integrin, 3340 nM.

Turning to Ac-CNGRCGVRY (disulfide 1-5) [acetylated-CNGRCGVRY peptide], the Ki stood at 38100 nM in [2] and 50700 nM in data set [3].
